# From PMC6879610 (Nature Communications, 2019)
# Changes are numbered by the printed parent chain.
# B1: PGZL1 gVmDmJ Fab (Fab, V domains shown)
# VH: QVQLVQSGAEVKKPGSSVKVSCKASGGTFSSYAISWVRQAPGQGLEWMGGIIPIFGTANYAQKFQGRVTITADKSTSTAYMELSSLRSEDTAVYYCAREGEGWFGKPLRAFEFWGQGTVITVSS
# VL: not shown
# notes: also called inferred germline PGZL1 Fab
# B2: PGZL1 gVgDgJ Fab (Fab, V domains shown)
# VH: B1 VH with K106E, E112D, F113V
# VL: not shown
# B3: PGZL1 gVgDmJ Fab (Fab, V domains shown)
# VH: B1 VH with K106E
# VL: not shown
# B4: PGZL1 gVgDgJ Fab (Fab, V domains shown)
# VH: B1 VH with K106E, E112D, F113V
# VL: not shown
# B5: PGZL1 gVgDgJ IgG (antibody, V domains shown)
# VH: B1 VH with K106E, E112D, F113V
# VL: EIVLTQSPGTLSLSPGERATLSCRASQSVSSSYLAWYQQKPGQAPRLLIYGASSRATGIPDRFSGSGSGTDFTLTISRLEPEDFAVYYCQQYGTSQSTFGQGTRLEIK
# B6: PGZL1 gVgDmJ Fab (Fab, V domains shown)
# VH: B1 VH with K106E
# VL: not shown
# B7: PGZL1 gVmDmJ Fab (Fab, V domains shown)
# VH: B1 VH
# VL: not shown
# B8: 4E10 (antibody, V domains shown)
# VH: QVQLVQSGAEVKRPGSSVTVSCKASGGSFSTYALSWVRQAPGRGLEWMGGVIPLLTITNYAPRFQGRITITADRSTSTAYLELNSLRPEDTAVYYCAREGTTGWGWLGKPIGAFAHWGQGTLVTVSS
# VL: EIVLTQSPGTQSLSPGERATLSCRASQSVGNNKLAWYQQRPGQAPRLLIYGASSRPSGVADRFSGSGSGTDFTLTISRLEPEDFAVYYCQQYGQSLSTFGQGTKVEVK
# notes: also called BnAb 4E10; mature 4E10
# B9: 4E10 L100cF (whole antibody) (antibody, V domains shown)
# VH: B8 VH with L107F
# VL: B8 VL
# B10: H4K3_SFS28EPE Fab (Fab, V domains shown)
# VH: KVQLVQSGAELKKPWSSVRVSCKASGGEPESYAFNWVRQAPGQRLEWLGGIVPLVSSTNYAQRFRGRVTISADRSTSTVYLEMTGLTSADTAVYFCAREGEGWFGRPLRAFEFWGQGTLVTVST
# VL: EIVLTQSPGTFALSPGERATLSCRASQSVSGGALAWYQQKAGQAPRLLIYDTSGRATGVPGRFSGSGSETDFSLTISRLEPEDFAVYYCQQYGTSQSTFGQGTRLETR
# B11: H4K3_5M Fab (Fab, V domains shown)
# VH: B10 VH with R74P, S75E
# VL: B10 VL
# B12: H4K3_RS73PE Fab (Fab, V domains shown)
# VH: B10 VH with E28S, P29F, E30S, R74P, S75E
# VL: B10 VL
# Experiments:
# Conditions in all cases: both partners purified
# MPER peptide PDT-081 [1] = target: T1, MPER peptide PDT-081 (HIV-1, strain  (synthetic …)); experiment: BLI; Octet RED96; biotinylated peptide PDT-081 (7.5 μg/ml) on streptavidin biosensors; serial dilution of Fab, 5 min association, 5 min dissociation; PBS/0.002% Tween 20/0.01% BSA; KD as koff/kon
# T1 construct: also called full-length MPER
# T1 sequence (P05877 655-684): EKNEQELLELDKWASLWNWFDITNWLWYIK
# MPER peptide PDT-081 [2] = target: T2, MPER peptide PDT-081 (HIV-1, strain  (synthetic …)); experiment: BLI; Octet RED96; biotinylated MPER peptide PDT-081 (7.5 ug/ml) captured on streptavidin biosensors; serial dilution of Fab, 5 min association, 5 min dissociation; PBS/0.002% Tween 20/0.01% bovine serum albumin; KD = koff/kon from five sensorgrams of the dilution series
# T2 construct: also called PDT081pept
# T2 sequence (P05877 655-684): as above
# MPER peptide PDT-081 [3] = target: T2, MPER peptide PDT-081; experiment: as above; remark: listed apart in the source
# MPER peptide PDT-081 [4] = target: T1, MPER peptide PDT-081; experiment: ELISA; 250 ng antigen per well coated overnight at 4 °C in PBS; serial dilutions of antibody 1 h at 37 °C; detected with anti-human IgG Fc-HRP
# MPER peptide PDT-081 [5] = target: T2, MPER peptide PDT-081; experiment: BLI; Octet RED96; biotinylated MPER peptide PDT-081 (7.5 ug/ml) captured on streptavidin biosensors; serial dilution of Fab, 5 min association, 5 min dissociation; PBS/0.002% Tween 20/0.01% bovine serum albumin; KD = koff/kon from five sensorgrams of the dilution series; remark: listed apart in the source
# ovalbumin = ovalbumin (Gallus gallus (species assumed), UniProt P01012); experiment: ELISA; 250 ng antigen per well coated overnight at 4 °C in PBS; serial dilutions of antibody 1 h at 37 °C; detected with anti-human IgG Fc-HRP
# MPER peptide PDT-081 [6] = target: T2, MPER peptide PDT-081; experiment: BLI; Octet RED96; biotinylated MPER peptide PDT-081 (7.5 ug/ml) captured on streptavidin biosensors; serial dilution of Fab, 5 min association, 5 min dissociation; PBS/0.002% Tween 20/0.01% bovine serum albumin; KD = koff/kon from five sensorgrams of the dilution series; remark: listed apart in the source
# MPER peptide PDT-081 [7] = target: T2, MPER peptide PDT-081; experiment: as above; remark: listed apart in the source
# MPER peptide PDT-081 [8] = target: T2, MPER peptide PDT-081; experiment: as above; remark: listed apart in the source
binder,measurement,setting,value
B1,Kd,MPER peptide PDT-081 [1],64.4 nM
B2,koff,MPER peptide PDT-081 [2],0.00802 s⁻¹
same,kon,MPER peptide PDT-081 [2],8550 M⁻¹ s⁻¹
B3,koff,MPER peptide PDT-081 [3],0.00197 s⁻¹
same,kon,MPER peptide PDT-081 [3],13300 M⁻¹ s⁻¹
B4,Kd,MPER peptide PDT-081 [1],938 nM
B5,fold increase in EC50,MPER peptide PDT-081 [4],369 fold
B6,Kd,MPER peptide PDT-081 [1],148 nM
B7,koff,MPER peptide PDT-081 [5],0.000991 s⁻¹
same,kon,MPER peptide PDT-081 [5],15400 M⁻¹ s⁻¹
B8,binding result,ovalbumin,binds
B9,binding result,ovalbumin,binds
B10,Kd,MPER peptide PDT-081 [6],15.1 nM
same,koff,MPER peptide PDT-081 [6],0.000539 s⁻¹
same,kon,MPER peptide PDT-081 [6],35700 M⁻¹ s⁻¹
B11,Kd,MPER peptide PDT-081 [7],23.4 nM
same,koff,MPER peptide PDT-081 [7],0.000674 s⁻¹
same,kon,MPER peptide PDT-081 [7],28800 M⁻¹ s⁻¹
B12,Kd,MPER peptide PDT-081 [8],12.8 nM
same,koff,MPER peptide PDT-081 [8],0.000509 s⁻¹
same,kon,MPER peptide PDT-081 [8],39700 M⁻¹ s⁻¹
